Here are results for 6 molecules from patent US20230235054A1 (BIOATLA, published 2023).

The target in assay [1] is T1, cynoNectin4 antigen (cynomolgus (cyno), UniProt A0A2K5WES1 32-349).
T1 construct: construct not described; also called cynomolgus (cyno) Nectin-4
T1 sequence: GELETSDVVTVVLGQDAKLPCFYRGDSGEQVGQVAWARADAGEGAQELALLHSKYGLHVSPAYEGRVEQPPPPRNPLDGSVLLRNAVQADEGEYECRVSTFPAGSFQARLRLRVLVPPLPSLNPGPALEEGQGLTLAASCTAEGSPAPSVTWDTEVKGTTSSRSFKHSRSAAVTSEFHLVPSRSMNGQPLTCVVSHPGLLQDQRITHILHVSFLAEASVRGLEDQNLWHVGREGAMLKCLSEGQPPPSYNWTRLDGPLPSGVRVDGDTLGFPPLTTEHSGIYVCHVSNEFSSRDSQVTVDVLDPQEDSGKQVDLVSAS
In words: ELISA, coated antigen, PSB pH 6.0. The protocol: (§1) 1) Coat ELISA plates with 100 μL of 1 μg/mL recombinant human Nectin4 antigen or cynoNectin4 antigen in carbonate-bicarbonate coating buffer. […] 2) Cover plates with sealing film and incubate overnight at 4° C. [0444] 3) Decant plates and tap out residual liquid on a stack of paper towels. [0445] 4) Wash wells twice by dispensing 200 μL of pH 6.0 or pH 7.4 ELISA incubation buffer to the wells and completely aspirate the contents. [0446] 5) Add 200 μL of pH 6.0 or pH 7.4 ELISA incubation buffer to the wells. Cover with sealing film and place the plate onto a plate shaker set to 50 rpm for 60 minutes at room temperature. [0447] 6) Decant plates and tap out residual liquid on a stack of paper towels. […] 7) Serially dilute test articles in 3-fold dilutions starting at 3000 ng/mL in pH 6.0 or pH 7.4 ELISA incubation buffer. […] 8) Add 100 μL/well of diluted test articles to the plates [0450] 9) Cover with sealing film and place the plates onto a plate shaker set to 50 rpm for 60 minutes at room temperature. [0451] 10) Decant plates and tap out residual liquid on a stack of paper towels. [0452] 11) Wash wells three times by dispensing 200 μL of pH 6.0 or pH 7.4 ELISA wash buffer to the wells and completely aspirate the contents. […] 12) Dilute the HRP secondary antibody at 1:2500 in pH 6.0 or pH 7.4 ELISA incubation buffer. [0454] […] 14) Cover with sealing film and place the plates onto a plate shaker set to 50 rpm for 60 minutes at room temperature. […] 15) Decant plates and tap out residual liquid on a stack of paper towels. […] 16) Wash wells three times by dispensing 200 μL of pH 6.0 or pH 7.4 ELISA wash buffer to the wells and completely aspirate the contents. [0458] 17) Dispense 50 μL per well of the TMB substrate solution into all wells of the plates.

The target in a further assay is T2, huNectin4-His (human, UniProt Q96NY8 32-349).
T2 construct: Immobilized on the SPR chip; also called humanNectin4; human Nectin4; not shown: His tag
T2 sequence (looked up): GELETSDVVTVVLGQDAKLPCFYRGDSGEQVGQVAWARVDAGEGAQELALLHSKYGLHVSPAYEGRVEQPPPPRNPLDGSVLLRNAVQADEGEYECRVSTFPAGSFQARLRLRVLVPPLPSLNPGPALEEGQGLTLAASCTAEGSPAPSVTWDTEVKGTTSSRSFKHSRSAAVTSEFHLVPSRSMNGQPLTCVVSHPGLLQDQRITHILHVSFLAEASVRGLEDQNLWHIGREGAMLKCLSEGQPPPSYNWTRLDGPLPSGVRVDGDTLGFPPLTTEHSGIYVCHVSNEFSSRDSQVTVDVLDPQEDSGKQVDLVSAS
In words: SPR, huNectin4-His immobilized, pH 6.0. How it is done:
Binding kinetics of anti-Nectin4 antibodies were measured by surface plasmon resonance using a SPR2/4 instrument (Sierra Sensors, Hamburg, Germany) and flat amine sensor chips. The SPR sensor contained four flow cells (FC1-FC4), each of which was addressed individually or in groups. huNectin4-His was immobilized in FC2, and cynoNectin4-mFc in FC4. No protein was immobilized in FC1 and FC3 which were used as control surfaces for FC2 and FC4, respectively.
(§2) All injections were done at a flow rate of 25 μL/min at 25° C. The sensor surface was activated with 1-ethyl-3-(3-dimethylaminopropyl)-carbodiimide (EDC) and N-hydroxysuccinimide (NHS) (200 mM/50 mM) for 480 seconds. HuNectin4-His (2 μg/mL in 10 mM NaAc, pH4.5) was injected for 480s and the surface was inactivated by injecting 1M ethanolamine-HCl for 480s. CynoNectin4 was immobilized using the same conditions as described for huNectin4-His, except that the cynoNectin4 was diluted into 10 mM NaAc buffer having pH 5.0. The control surface was activated and deactivated using the same conditions, but without injecting protein. PBST buffer (PBS pH 7.4 with 0.05% TWEEN20™) was used as running buffer for the surface preparation. The running solution was switched to PBST with 30 mM sodium bicarbonate with the pH adjusted as indicated in the figures before the analyte injections. The instrument was equilibrated with the running solution for one hour before the first analyte injection.
(§3) The off-rate was measured for 360s. The chip surface was regenerated after each cycle of interaction analysis by injecting 6 μL of 10 mM glycine (pH 2.0). Flow cells 1 and 3 without immobilized protein were used as control surfaces for reference subtraction.
(In general: In SPR one partner is held on a chip, and binding of the other changes the refractive index at the surface.)

Assay [2] deals with T3, RatNectin4-His (rat, UniProt D3ZET1 31-348).
T3 construct: Immobilized on the SPR chip; not shown: His tag
T3 sequence: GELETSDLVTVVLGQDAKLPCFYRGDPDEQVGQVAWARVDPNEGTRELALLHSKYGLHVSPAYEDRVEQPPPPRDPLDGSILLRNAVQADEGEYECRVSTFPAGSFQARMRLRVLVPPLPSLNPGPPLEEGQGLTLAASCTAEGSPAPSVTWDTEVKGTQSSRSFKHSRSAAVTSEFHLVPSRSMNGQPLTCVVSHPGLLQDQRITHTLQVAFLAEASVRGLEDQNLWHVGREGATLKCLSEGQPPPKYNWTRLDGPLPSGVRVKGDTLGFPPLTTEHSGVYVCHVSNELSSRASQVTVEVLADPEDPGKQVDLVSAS
The experiment in a line: SPR, RatNectin4-His immobilized, pH 6.5. How it is done:
as §2, §3
(§4) In addition, data with buffer only as analyte (0 nM analyte) was subtracted from each run. Double subtracted data was fitted with the provided analysis software Analyzer R2 (Sierra Sensors) using a 1:1 binding model. A molecular weight of 150 kDa was used to calculate the molar concentrations of the analytes. RatNectin4-His was immobilized in FC3 using the same conditions as described for cynoNectin4.

Assay [3] addresses T3, RatNectin4-His. In words: SPR, RatNectin4-His immobilized, pH 7.4. How it is done: as §2, §3, §4
The target in assay [4] is T1, cynoNectin4 antigen. The experiment in a line: ELISA, ratio of EC50s. The protocol:
as §1
(In an ELISA, binding on a coated surface is turned into a signal by an enzyme label.)

B1: BAP-143-wildtype (antibody, V domains shown)
VH: EVQLVESGGGLVQPGGSLRLSCAASGFTFSSYNMNWVRQAPGKGLEWVSYISSSSSTIYYADSVKGRFTISRDNAKNSLSLQMNSLRDEDTAVYYCARAYYYGMDVWGQGTTVTVSS
VL: DIQMTQSPSSVSASVGDRVTITCRASQGISGWLAWYQQKPGKAPKFLIYAASTLQSGVPSRFSGSGSGTDFTLTISSLQPEDFATYYCQQANSFPPTFGGGTKVEIK
notes: 150 kDa used in SPR; also called BAP143-00-00; benchmark (BM)
By EC50 is commonly meant the midpoint of the concentration-response curve. A low value points to greater potency. As usually defined, the Kd is the free concentration of one partner at which half of the binding sites on the other are occupied at equilibrium, for simple one-to-one binding. Lower therefore signals a tighter complex. B1: the 50% effective concentration (EC50) with cynoNectin4 antigen [1] worked out at 0.0146 µg/mL. Moreover, the equilibrium dissociation constant (Kd) in the assay with huNectin4-His amounted to 0.149 nM; with RatNectin4-His [2], 0.108 nM; with RatNectin4-His [3] it was 0.135 nM.

B2: BAP-143-06-24-16 (antibody, V domains shown)
VH: EVQLVQSGAEVKKPGATVKISCKVSGFTFSSYNMNWIRQSPSRGLEWLGYISSSSSTIYYADSVKGRFTISRDNSKNTLYLQMNSLRAEDTAVYYCARAYYYGDDVWGQGTLVTVSS
VL: DIQMTQSPSSVSASVGDRVTITCHASQGISGWLAWYQQKPGKAPKFLIYAASTLQSGVPSRFSGSGSGTDFTLTISSLQPEDFATYYCQQANSFPPTFGGGTKVEIK
notes: Used as a conjugate with a linker payload (CAB ADC)
What is called koff is a measure of how fast the partners let go of each other. Higher therefore signals fast dissociation. In general, kon refers to the second-order rate constant of association. The low end stands for slow association, the high end for fast association. Take B2: the “EC50 ratio pH 7.4/6.0” value in the assay with cynoNectin4 antigen [4] came out at 1.08. Further, the midpoint of the response with cynoNectin4 antigen [1], the EC50, lay at 0.0261 µg/mL. In the assay with huNectin4-His, this molecule displayed a Kd of 0.0944 nM, a koff of 0.00033 s⁻¹ and a kon of 3.5e+06 M⁻¹ s⁻¹. In the assay with RatNectin4-His [2], this molecule showed a Kd of 0.0378 nM, a koff of 0.000128 s⁻¹ and a kon of 3.39e+06 M⁻¹ s⁻¹. Besides, in the assay with RatNectin4-His [3], the Kd turned out to be 0.171 nM, the koff came out at 0.000178 s⁻¹ and the kon was found to be 1.04e+06 M⁻¹ s⁻¹.

B3: BAP-143-06-33-03 (antibody, V domains shown)
VH: QVQLVQSGAEVKKPGASVKVSCKASGFTFSSYNMNWVRQARGQRLEWIGYISSSSSTIYYADSVKGRFTISRDNSKNTLYLQMNSLRAEDTAVYYCARAYYYGMDKWGQGTLVTVSS
VL: DIQMTQSPSSVSASVGDRVTITCRASQGISGWLAWYQQKPGKAPKFLIYAASTLQSGVPSRFSGSGSGTDFTLTISSLQPEDFATYYCQQANSEPPTFGGGTKVEIK
notes: as for B2
Consider B3, for which the “EC50 ratio pH 7.4/6.0” value in the assay with cynoNectin4 antigen [4] is 1.83. Further, the EC50 with cynoNectin4 antigen [1] amounted to 0.0395 µg/mL.

B4: BAP-143-00-01 (antibody, V domains shown)
VH: EVQLVESGGGLVQPGGSLRLSCAASGFTFSSYNMNWVRQAPGKGLEWVSYISSSSSTIYYADSVKGRFTISRDNAKNSLSLQMNSLRDEDTAVYYCARAYYYGMDVWGQGTTVTVSS
VL: DIQMTQSPSSVSASVGDRVTITCRASQGISGWEAWYQQKPGKAPKFLIYAASTLQSGVPSRFSGSGSGTDFTLTISSLQPEDFATYYCQQANSFPPTFGGGTKVEIK
notes: as for B2
In the assay with huNectin4-His, B4 registered a Kd of 0.739 nM, a koff of 0.000771 s⁻¹ and an on-rate (kon) of 1.04e+06 M⁻¹ s⁻¹. In the assay with RatNectin4-His [2], this molecule displayed a Kd of 1.36 nM, a koff of 0.000953 s⁻¹ and a kon of 700000 M⁻¹ s⁻¹. Moreover, in the assay with RatNectin4-His [3], binding was put at a Kd of 2.42 nM, the koff turned out to be 0.000875 s⁻¹ and the kon is 361000 M⁻¹ s⁻¹.

B5: BAP-143-06-33-16 (antibody, V domains shown)
VH: EVQLVQSGAEVKKPGATVKISCKVSGFTFSSYNMNWIRQSPSRGLEWLGYISSSSSTIYYADSVKGRFTISRDNSKNTLYLQMNSLRAEDTAVYYCARAYYYGDDVWGQGTLVTVSS
VL: DIQMTQSPSSVSASVGDRVTITCRASQGISGWEAWYQQKPGKAPKFLIYAASTLQSGVPSRFSGSGSGTDFTLTISSLQPEDFATYYCQQANSFPPTFGGGTKVEIK
notes: as for B2
The molecule B5 returned an EC50 in the assay with cynoNectin4 antigen [1] of 0.0384 µg/mL. Also, the Kd came out at 0.11 nM in the assay with huNectin4-His, 0.101 nM with RatNectin4-His [2] and 1.94 nM with RatNectin4-His [3]. Further, the koff with huNectin4-His was 0.000195 s⁻¹; in the assay with RatNectin4-His [2] it was 0.000304 s⁻¹; in the assay with RatNectin4-His [3] it was 0.000261 s⁻¹. The on-rate (kon) with huNectin4-His is 1.77e+06 M⁻¹ s⁻¹; with RatNectin4-His [2], 3.01e+06 M⁻¹ s⁻¹; in the assay with RatNectin4-His [3], 135000 M⁻¹ s⁻¹.

B6: BAP-143-07-03-12 (antibody, V domains shown)
VH: EVQLVESGGGLVQPGGSLRLSCAASGFTFSSYNMNWVRQAPGKGLEWVSYISSSSSTIYYADSVKGRFTISRDNAKNSLSLQMNSLRDEDTAVYYCARAYYYGMDKWGQGTTVTVSS
VL: DIQMTQSPSSVSASVGDRVTITCRASQGISGWEAWYQQKPGKAPKFLIYAASTLQSGVPSRFSGSGSGTDFTLTISSLQPEDFATYYCQQANSFPPTFGGGTKVEIK
notes: as for B2
For B6, in the assay with cynoNectin4 antigen [4], the “EC50 ratio pH 7.4/6.0” value was 3.6. For the same molecule, in the assay with cynoNectin4 antigen [1], the midpoint of the response, the EC50, lay at 0.0239 µg/mL. The results for the dissociation constant (Kd) with huNectin4-His, with RatNectin4-His [2] and in the assay with RatNectin4-His [3] were 0.69 nM, 1.1 nM and 1.31 nM, respectively. The dissociation rate constant (koff) in the assay with huNectin4-His turned out to be 0.000869 s⁻¹; with RatNectin4-His [2] it was 0.000868 s⁻¹; in the assay with RatNectin4-His [3], 0.000731 s⁻¹. The figures for the kon with huNectin4-His, with RatNectin4-His [2] and with RatNectin4-His [3] were 1.26e+06 M⁻¹ s⁻¹, 787000 M⁻¹ s⁻¹ and 557000 M⁻¹ s⁻¹, respectively.
